Results published in PMC11021501, “Insights into the inhibition of protospacer integration via direct interaction between Cas2 and AcrVA5” (Nature Communications, 2024).

B3: Treponema denticola Cas2 (natural protein)
chain: MRVIVFFDLPVITPENRHNYSVFRKYLIKSGFIMQQKSVYSKLVLNLTNRDSIVKSIEKNKPPEGLVEVLTVTEKQYAKMEIIIGESKTEYLNTDERLVVL
notes: Cas2 of Treponema denticola, type II-A CRISPR-Cas system; gene amplified and cloned into a modified pET32a vector with a precession enzyme cleavage site; A GST-tagged Cas2 (pGEX-6p-1, GST removed) was also made; Dimer by the crystal structure; also called Td-Cas2; WT-Cas2; not shown: Trx, N-terminal, cleaved

What was measured:
[1] = biological target: Treponema denticola Cas2 (Treponema denticola) (UniProt Q73QW4); experiment: ITC; AcrVA5 (400 µM) injected into 50 µM Cas2 in the sample cell, 25 °C, 20 mM Tris pH 7.4, 200 mM NaCl; also AcrVA5 mutants and AcrVA5 peptides with Cas2
[2] = biological target: T1, Treponema denticola Cas2 (Treponema denticola, UniProt Q73QW4 1-101); experiment: ITC
T1 chain: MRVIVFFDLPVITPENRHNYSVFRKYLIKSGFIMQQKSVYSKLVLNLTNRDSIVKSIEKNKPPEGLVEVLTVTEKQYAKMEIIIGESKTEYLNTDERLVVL

[3] = biological target: B3; experiment: ITC; AcrVA5 (400 µM) injected into 50 µM Cas2 in the sample cell, 25 °C, 20 mM Tris pH 7.4, 200 mM NaCl; also AcrVA5 mutants and AcrVA5 peptides with Cas2; details: both partners purified
[4] = biological target: the molecule itself; experiment: crystal structure; Cas2 with peptide at molar ratio 1:1.2, hanging drop, 15% PEG3350, 10% glycerol, 0.1 M Tris pH 6.4; 2.0 Å

B1: AcrVA5-L5A (natural protein)
chain: MKIEASGGYICYSIEEDEVTIDMVEVTTKRQGIGSQLIDMVKDVAREVGLPIGLYAYPQDDSISQEDLIEFYFSNDFEYDPDDVDGRLMRWS
Kd [1]: 1300 nM | Kd [2]: 1060 nM

B2: Moraxella bovoculi AcrVA5 (natural protein)
chain: MKIELSGGYICYSIEEDEVTIDMVEVTTKRQGIGSQLIDMVKDVAREVGLPIGLYAYPQDDSISQEDLIEFYFSNDFEYDPDDVDGRLMRWS
modifications: C-terminal His-tag left out; the vector-derived PLGS of 6IUF is dropped, so entity number = AcrVA5 number + 4
Ka [3]: 939000 M⁻¹ | Kd [3]: 1100 nM | dH [3]: 4.23 ± 0.165 kcal/mol | stoichiometry N [3]: 0.596 ± 0.0158

B3
stoichiometry N [4]: 2
